T1: 生物素标记的TIGIT (Acrobiosystems, TIT-H82E5) (UniProt Q495A1)
T1 sequence (biotin-labelled (生物素标记), site not stated, looked up): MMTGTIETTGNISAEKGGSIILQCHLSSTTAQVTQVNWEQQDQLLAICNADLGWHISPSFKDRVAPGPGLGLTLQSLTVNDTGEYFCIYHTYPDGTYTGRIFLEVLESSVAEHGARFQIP

T2: 生物素标记的TIGIT (Acrobiosystems, TIT-H82E5) (UniProt Q495A1 22-141, biotin-labelled (生物素标记), site not stated)
T2 sequence (looked up): T1 sequence (biotin-labelled (生物素标记), site not stated, looked up)

T3: 人TIGIT蛋白 (Acrobiosystems, TIT-H52H3) (human, UniProt Q495A1 22-141)
T3 construct: Bought recombinant protein coated on ELISA plates
T3 sequence (looked up): T1 sequence (biotin-labelled (生物素标记), site not stated, looked up)

T4: TIGIT on 293T-TIGIT cells (UniProt Q495A1 22-244)
T4 construct: whole, on cells; also called 细胞膜上TIGIT; 293T-TIGIT细胞
T4 sequence (looked up): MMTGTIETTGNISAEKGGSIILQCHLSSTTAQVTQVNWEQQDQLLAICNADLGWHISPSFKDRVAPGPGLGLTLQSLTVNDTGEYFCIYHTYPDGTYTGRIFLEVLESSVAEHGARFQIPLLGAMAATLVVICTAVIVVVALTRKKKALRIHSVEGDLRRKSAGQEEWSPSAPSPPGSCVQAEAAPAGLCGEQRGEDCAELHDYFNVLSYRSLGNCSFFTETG

B1: 7D3 (antibody, V domains shown)
VH: EVQLQQSGPELVKPGASVKMSCKASGYTFTSYVMHWVKQKPGQGLEWIGYINPYNDGTKYNEKFKGKATLTSDKSSSTAYMELSSLTSEDSAVYYCARRGNGPLRVFAYWGQGTTVTVSS
VL: DIVMTQTPKFMSTSVGDRVSITCKASQDVSTAVAWYQQKPGQSPKLLIYSASYRYTGVPDRFTGSGSGTDFTFTISSVQAEGLAVYYCQQHYSTPPTFGAGTKLEIK
notes: Mouse monoclonal antibody from a hybridoma (BALB/c x SP2/0); also called 鼠源抗体; 鼠源抗TIGIT抗体7D3

Tests used:
[1] = molecular target: T1, 生物素标记的TIGIT (Acrobiosystems, TIT-H82E5); assay: competition ELISA, control IgG, inhibition of biotinylated TIGIT binding to coated CD155
[2] = molecular target: T2, 生物素标记的TIGIT (Acrobiosystems, TIT-H82E5); assay: competition ELISA, blocking of biotinylated TIGIT binding to coated CD155
[3] = molecular target: T3, 人TIGIT蛋白 (Acrobiosystems, TIT-H52H3); assay: ELISA, human TIGIT protein coated at 0.5 μg/ml, goat anti-mouse IgG detection
[4] = molecular target: T2, 生物素标记的TIGIT (Acrobiosystems, TIT-H82E5); assay: competition ELISA, blocking of biotinylated TIGIT binding to coated CD112
[5] = molecular target: T4, TIGIT on 293T-TIGIT cells; assay: flow cytometry on 293T-TIGIT cells, FITC goat anti-mouse IgG detection

Row | Molecule | 抑制率(%) [1] [%] | IC50 [2] [nM] | EC50 [3] [nM] | IC50 [4] [nM] | EC50 [5] [nM]
1 | IgG1 (antibody) | 1.68 | – | – | – | –
2 | B1 | – | 0.804 | 0.108 | 3.97 | 0.0113
